Test [1] addresses T1, WT H3.3 26-35 peptide/HLA-A*02:01 complex on T2 cells (human).
T1 construct: whole, on cells; T2 cells pulsed with the synthetic peptide; also called T2-WT H3.3; T2-WT 3.3
Briefly: flow cytometry, scFv phage on T2 cells, anti-M13 + labelled anti-mouse IgG. (In general: In flow cytometry, cells or beads pass a laser one at a time.)

The target of test [2] is T2, control peptide mixture P20/HLA-A*02:01 complexes on T2 cells (human).
T2 construct: whole, on cells; A pool of 20 different peptide/HLA-A*02:01 complexes on one cell population, not a single complex; also called T2-P20
Described as above.

Test [3] concerns the target T3, HLA-A*02:01 on T2 cells without peptide loading (human).
T3 construct: whole, on cells; TAP-deficient T2 cells with no exogenous peptide
Described as above.

The target of test [4] is T3, HLA-A*02:01 on T2 cells without peptide …. In words: flow cytometry, scFv phage on T2 cells, anti-M13 + PE anti-mouse IgG.
The target in test [5] is T1, WT H3.3 26-35 peptide/HLA-A*02:01 …. The description is as above.
The target in test [6] is T4, WT H3.1 26-35 peptide/HLA-A*02:01 complex on T2 cells (human).
T4 construct: whole, on cells; T2 cells pulsed with the synthetic peptide; also called T2-WT H3.1; T2-WT 3.1
Described as above.

The target of test [7] is T2, control peptide mixture P20/HLA-A*02:01 …. Described as above.
In test [8] the target is T3, HLA-A*02:01 on T2 cells without peptide …. Briefly: flow cytometry, scFv phage on T2 cells.
For test [9] the target is unchanged. Briefly: T2 stabilisation assay, BB7.2 staining, flow cytometry.

B1: Phage clone 33 (scFv)
scFv: QSVLTQPPSVSGAPGQRVTIFCTGSSSNIGAGYDVHWYQQLPGTAPKLLIYGNNNRPSGVPDRFSGSKSGTSASLAITGLQAEDEADYYCQSYDTSLTPVFGGGTKLTVLGSRGGGGSGGGGSGGGGSLEMAEVQLVQSGAEVRKPGSSVKVSCKASAGTFNRYSLSWVRQAPGQGLEWVGRIIPIIGVADYAQKFQGRVTITADKSATTAYMELHSLRSEDTAVYYCARQEYSYAMDYWGQGTLVTVSS
notes: fusion to the phage coat protein not described
For the molecule B1, the “Median MFI (PE-A)” value in test [1] amounted to 49100 MFI; in [2] it was 2860 MFI.

B2: Phage clone 32 (scFv)
scFv: QSVLTQPPSVSGAPGQRVTISCTGSSSNLGAGYDVHWYQQLPGTAPKVLVYFNNNRPSGVPDRFSGSKSGTSASLAITGLQAEDEADYYCQSYDSSLSASVFGTGTKVTVLGSRGGGGSGGGGSGGGGSLEMAQVQLVESGAEVKKPGASVKVSCKASGYTFTSYTITWVRQAPGQGLEWMGWISPYNGNTNYAQNLQGRVTMTTDTSTTTAYMELRSLTSDDTAVYYCARSWEHGFPYDEWGQGTLVTVSS
Take B2: the results for the “Median MFI (PE-A)” value in [3], in [1] and in test [2] were 132 MFI, 90800 MFI and 146 MFI, respectively.

B3: Phage clone 35 (scFv)
scFv: SYVLTQPPSASGTPGQRVTISCSGSTFNIGSNTVNWYQQLPATAPKLLIYSNNQRPSGVPDRFSGSKSGTSASLAISGLQSEDAAAYYCAAWDDSLSGHVVFGGGTKLTVLGSRGGGGSGGGGSGGGGSLEMAEVQLVQSGAEVKKPGASVKVSCKASGYTFTSYGISWVRQAPGQGLEWMGWISAYNGNTNYAQKLQGRVTMTTDTSTSTAYMELRSLRSDDTAVYYCARYYESGYPFDWWGQGTLVTVSS
In the case of B3, the “Median MFI (PE-A)” value in test [3] is 125 MFI; in test [1], 84200 MFI; in test [2], 124 MFI.

B4: Phage clone 38 (scFv)
scFv: SYELTQPPSVSVAPGKTARITCGGNNIGSKSVNWYQQKPGQAPVLVIYYDNDRPSGIPERFSGSNSGNTATLTISRVEAGDEADYYCQVWNSSSDHYVFGTGTKVTVLGSRGGGGSGGGGSGGGGSLEMAQMQLVQSGAEVKTTGASVRVSCKASGYTFTDYYLHWVRQAPGQGLEWMGWINPHSGGTNYAQKFQGRVTMTRDTSISTAYMELSSLRSDDTAVYYCAREDYSGSGSSDAWGQGTLVTVSS
notes: as for B1
B4: the “Median MFI (PE-A)” value was found to be 66 MFI in test [3], 32900 MFI in test [1] and 128 MFI in test [2].

B5: Phage clone 34 (scFv)
scFv: QSVLTQPPSVSGAPGQRVTISCTGSSLNLGAGYDVHWYQQFPGTAPKLLIFANTNRPSGVPDRFSASKSGTSASLAITGLQAEDEADYFCQSYDNSLSGYVFGTGTKVTVLGSRGGGGSGGGGSGGGGSLEMAQVQLVQSGAEVKKPGSSVKVSCKASGGTFSSYAISWVRQAPGQGLEWMGGIIPIFGTANYAQKFQGRVTITADESTSTAYMELSSLRSEDTAVYYCARSYWTFEYSIDSWGQGTLVTVSS
Take B5: the entries for the “Median MFI (PE-A)” value in [3], in [1] and in [2] were 109 MFI, 8340 MFI and 109 MFI, respectively.

B6: Phage clone 13 (scFv)
scFv: DVVMTQSPLSLPVTLGQPASISCRSSQSLIYSNGNTYLTWFHQRPGQPPRRLIHKVSNRDSGVPDRFSGSGSGSDFTLKISRVEAEDVGIYYCMQGTHWPPTFGGGTKLEIKRSRGGGGSGGGGSGGGGSLEMAEVQLVQSGAEVKKPGESLKISCKGSGYSFTSYWIGWVRQMPGKGLEWMGIIYPGDSDTRYSPSFQGQVTISADKSISTAYLQWSSLKASDTAMYYCARGYDVWGQGTLVTVSS
notes: as for B1
Consider B6, for which the “Median MFI (PE-A)” value in test [4] is 543 MFI; in [5], 784 MFI; in [6] it was 761 MFI; in test [7] it was 1560 MFI.

B7: Phage clone 5 (scFv)
scFv: DVVMTQSPLSLPVTLGQPASISCRSSQSLVYSNGNTYLNWFHQRPGQSPRRLIYEVSNRDSGVPDRFSGSGSGTDFTLKISRVEAEDVGVYYCMQGTHWPPTFGGGTKLEIKRSRGGGGSGGGGSGGGGSLEMAEVQLVQSGAEVKKPGESLKISCKGSGYSFTSYWIGWVRQMPGKGLEWMGIIYPGDSDTRYSPSFQGQVTISADKSISTAYLQWSSLKASDTAMYYCARGYDGWGQGTLVTVSS
notes: fusion to the phage coat protein not described; also called anti-HMC scFv 5
With B7, the “Median MFI (PE-A)” value in test [5] turned out to be 305 MFI; in test [6], 320 MFI; in test [7], 703 MFI.

B8: Phage clone 16 (scFv)
scFv: DVVMTQSPLSLPVTLGQPASISCRSSQSLIYSNGNTYLTWFHQRPGQPPRRLIHKVSNRDSGVPDRFSGSGSGSDFTLKISRVEAEDVGIYYCMQGTHWPPTFGGGTKLEIKRSRGGGGSGGGGSGGGGSLEMAEVQLVQSGAEVKKPGESLKISCKGSGYSFTSYWIGWVRQMPGKGLEWMGIIYPGDSDTRYSPSFQGQVTISADKSISTAYLQWSSLKASDTAMYYCARGYDSWGQGTLVTVSS
notes: as for B1
Turning to B8, the “Median MFI (PE-A)” value in test [4] is 1700 MFI; in [5], 2440 MFI; in test [6] it was 2320 MFI; in test [7] it was 4190 MFI.

B9: Phage clone 10 (scFv)
scFv: EIVLTQSPLSLPVTLGQPASISCRSSQSLVYSNGNTYLSWFHQRPGQSPRRLIYKVSKRDSGVPDRFSGSGSGTDFTLKISRVEAEDVGVFYCMQGTYWPYTFGQGTKLEIKRSRGGGGSGGGGSGGGGSLEMAEVQLVQSGAEVKKPGESLKISCKGSGYSFTSYWIGWVRQMPGKGLEWMGIIYPGDSDTRYSPSFQGQVTISADKSISTAYLQWSSLKASDTAMYYCARGFDNWGQGTLVTVSS
notes: as for B1
On to B9, for which the “Median MFI (PE-A)” value turned out to be 686 MFI in test [4], 849 MFI in test [5], 770 MFI in [6] and 2010 MFI in test [7].

B10: Phage clone 36 (scFv)
scFv: SSELTQDPAVSVALGQTVRITCQGDSLRSYYANWYQQKPGQAPVLVIYAKSNRPSGIADRFSGSSSGNTASLTITGAQAEDEADYYCNSRDSSGNRWVFGGGTKVTVLGSRGGGGSGGGGSGGGGSLEMAEVQLVQSGAEVKKPGASVKVSCKASGYTFTGYYMHWVRQAPGKGLEWMGGFDPEDGETIYAQKFQGRVTMTEDTSTDTAYMELSSLRSEDTAVYYCARSSWWSPVTYYDIWGQGTLVTVSS
notes: as for B1
Consider B10, for which the “Median MFI (PE-A)” value in test [1] turned out to be 33600 MFI; in test [2], 11000 MFI.

B11: Phage clone 31 (scFv)
scFv: QAVLTQPSSLSASPGASASLTCTLRSGINVGTYRIYWYQQKPGSPPQYLLRYKSDSDKQQGSGVPSRFSGSKDASANAGILLISGLQSEDEADYYCMIWHSSAWVFGGGTKLTVLGSRGGGGSGGGGSGGGGSLEMAEVQLVESGGGLVQPGGSLRLSCAASGLTFDRYAMSWVRQAAGKGLERFSAITGDGYYTYYADSVKGRFTISRDNSKNTLYLQMNSLGAEDTAVYYCARLSGIGRSSYDGWGQGTLVTVSS
notes: as for B1
Take B11: the “Median MFI (PE-A)” value is 125 MFI in test [4], 777 MFI in [5], 529 MFI in [6] and 128 MFI in test [7]. For the same molecule, the binding result in test [8] is “no binding”.

B12: WT H3.1 26-35 peptide (peptide)
peptide: RKSAPATGGV
notes: Free synthetic peptide pulsed onto T2 cells; also called H3.1 26-35 WT peptide
As to B12, the binding result in [9] was “binds”.

B13: mutant histone K27M-H3.3 26-35 peptide (peptide)
peptide: RMSAPSTGGV
notes: Free synthetic peptide pulsed onto T2 cells
B13: the binding result in test [9] is “binds”.

B14: mutant histone K27M-H3.1 26-35 peptide (peptide)
peptide: RMSAPATGGV
notes: as for B13
For B14, in test [9], the binding result is given as “binds”.

(Values after patent publication US20190338035A1 (EUREKA THERAPEUTICS, published 2019).)
